Results taken from patent US6821728B1, “Screening system” (priority 1998, dated 2004).

How the values were obtained:
mutated p53 R273H = molecular target: T1, mutated p53 R273H (Homo sapiens, UniProt P04637, R273H); test: transactivation experiments in yeast strain YDE4xp53 (LacZ expression, beta-galactosidase); type: cell-based; details: peptide expressed from the pESBA-ADH or pESBA-ACT vector in yeast
T1 construct: expressed in transfected cells; host or cells: Saccharomyces cerevisiae strain YDE4xp53 (derivative of JPY9)
Text: The agonistic action of the inventive screening system has been shown for the tumor suppressor gene p53. The tumor suppressor gene p53 is mutated in more than 50% of all human cancers which results in the inability to properly bind to the p53 binding site sin target genes responsible to induce cell cycle arrest or apoptosis. The four most commonly found mutations occur in the DNA binding domain of p53 and lead to a single amino acid substitution. […] This opens the possibility to use the peptide libraries according to the present invention to screen for peptides which restore the mutated p53 to wild type activity or to use this system to screen for agonistic actions of peptides in general. […]
Yeast strain YDE4xp53 was transformed with the conventional lithium acetate method (Methods in Yeast Genetics, a Cold Spring Harbor Laboratory Course Manual, Cold Spring Harbor Laboratory Press, 1994) with wild type and mutated p53 expression vectors. Transactivation potential of the different p53 molecules was determined by measurement of the LacZ expression on X-gal plates and liquid beta-galactosidase assays as described (Escher and Schaffner, Gene Activation at a Distance and Telomeric Silencing . . . , Mol. Gen. Genet. (1997) 256; 456-461). […]

mutated p53 (p53 R273H) = mutated p53 (p53 R273H) (Homo sapiens, UniProt P04637, R273H); details: synthetic peptide fused to the Drosophila Antennapedia internalisation domain (17 amino acids); cited from earlier work
[1] = molecular target: T2, interaction between GAL4 and GAL11P (Saccharomyces cerevisiae, UniProt P19659, N342I); test: inhibition of GAL4(1-100)-GAL11P interaction and reporter gene (LacZ/URA3) activation in yeast; type: cell-based; details: expressed from a high-copy plasmid (2 μm) in yeast, vector pESBA-ADH1
T2 construct: expressed in transfected cells; host or cells: Saccharomyces cerevisiae, JPY9 derivative (gal4Δ11) with integrated pESBA-17mer-URA3
Text: To test the antagonistic action of short protein fragments or peptides in yeast, it was checked whether high production of a peptide could inhibit a defined molecular interaction.
The yeast strain used in these experiments is a derivative of JPY9 (MATα, ura3-52, his3Δ200, leu2Δ1, trp1Δ63, lys2Δ385, gal4Δ11) (A. Barberis et al., Cell, Vol. 81, 359-368) in which the reporter construct pESBA-17mer-URA3 was integrated at the his3 locus. Integration through homologous recombination was piloted by linearisation of the reporter plasmid at the XhoI site prior to yeast transformation. Expression of the URA3 gene was exploited to select for stable integrants on ura-media. […] Upon selection for integration of the reporter construct, this plasmid was readily cured from yeast cells by negative selection for URA3 expression on media containing 5-FOA (ref. Guide to Yeast Genetics and Molecular Biology)
Activation of the divergent LacZ and URA3 reporter genes in the yeast strain described above was induced by co-expression of the DNA-binding domain of GAL4 (amino acid residues 1-100) and GAL11P. GAL4(1-100) was expressed from the plasmid pRJR217 (Y. Wu et al., Quantification of Putative Activator- Target Affinities . . . , EMBO J. 15, 3951-3963, 1996), while GALllP was expressed from pSO28 (A. Barberis et. al., Cell Vol. 81, 359-368). […]

T2 sequence (P19659 whole entry N342I, the tested form may be a part): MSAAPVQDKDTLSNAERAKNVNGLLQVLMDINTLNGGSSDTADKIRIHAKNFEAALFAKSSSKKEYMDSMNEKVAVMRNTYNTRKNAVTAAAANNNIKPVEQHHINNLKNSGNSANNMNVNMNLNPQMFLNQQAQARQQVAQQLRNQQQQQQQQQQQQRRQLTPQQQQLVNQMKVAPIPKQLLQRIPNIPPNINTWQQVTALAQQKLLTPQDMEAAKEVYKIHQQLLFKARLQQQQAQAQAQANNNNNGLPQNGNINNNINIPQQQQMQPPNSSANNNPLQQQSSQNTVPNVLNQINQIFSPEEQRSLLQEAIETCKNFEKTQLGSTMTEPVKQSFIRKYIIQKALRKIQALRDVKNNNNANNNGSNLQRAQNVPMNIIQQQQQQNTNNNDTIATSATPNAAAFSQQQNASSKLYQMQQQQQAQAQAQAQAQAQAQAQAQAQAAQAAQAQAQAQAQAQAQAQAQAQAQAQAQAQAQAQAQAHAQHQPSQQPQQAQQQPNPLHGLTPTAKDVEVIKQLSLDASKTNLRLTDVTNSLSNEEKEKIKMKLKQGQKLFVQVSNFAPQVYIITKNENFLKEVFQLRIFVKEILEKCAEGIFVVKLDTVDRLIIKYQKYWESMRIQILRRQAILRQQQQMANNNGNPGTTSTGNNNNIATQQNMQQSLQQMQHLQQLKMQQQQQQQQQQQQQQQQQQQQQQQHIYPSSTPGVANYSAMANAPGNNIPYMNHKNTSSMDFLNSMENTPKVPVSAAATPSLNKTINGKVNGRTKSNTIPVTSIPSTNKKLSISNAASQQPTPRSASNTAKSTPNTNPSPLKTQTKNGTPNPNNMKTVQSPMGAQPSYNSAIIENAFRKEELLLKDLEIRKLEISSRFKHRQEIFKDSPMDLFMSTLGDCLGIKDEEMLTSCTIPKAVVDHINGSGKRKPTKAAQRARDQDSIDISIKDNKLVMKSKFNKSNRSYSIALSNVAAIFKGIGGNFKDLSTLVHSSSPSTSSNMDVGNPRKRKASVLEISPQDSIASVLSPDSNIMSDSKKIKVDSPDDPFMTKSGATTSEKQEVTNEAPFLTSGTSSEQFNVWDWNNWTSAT

| Substance | reactivation of mutated p53 R273H in transactivation experiments (mutated p53 R273H) | restoration of DNA binding activity of the mutated p53 (mutated p53 (p53 R273H)) | inhibition of GAL4-GAL11P protein-protein interaction and its effect on gene expression [1] |
| --- | --- | --- | --- |
| 22mer peptide 46: 22 amino acid long peptide stemming from the carboxy-terminal part of p53 (361-382) (GSRAHSSHLKSKKGQSTSRHKK; UniProt P04637 361-382, looked up, fragment) | sufficient to partially reactivate mutated p53 R273H | can restore DNA binding activity of the mutated p53 | – |
| short protein fragment: peptide comprising the GAL4 residues 58-97, known to contain the GAL11P-interacting sequence, overexpressed from vector pESBA-ADH1 | – | – | could be specifically inhibited |
